In the DeepSol protein solubility set:

Assay: soluble on expression in E. coli; label from the status in PepcDB or PDB records

Sequence | soluble on expression in E. coli
MLMAATIPHIETITFTDWFLAIIDTPDIPIDEIEIRVAEGFKRKLTERQFQQLTELIHLISFIKHKKISNPTLALRIYVDENTSSLSRTALVEAVRMLPPEDNKTYELAAYLAQKNKLERYTNITKVPPLQIYQGDGVFEQYDEWILLFELFGLTQATPSDFIPAIAHLLITKNLGIPDLRALSKFMSTTHKLGILSQSFMNNMTPHLCNGQIIEKYESLLLKLQINDLLTEEILEVIYPLLNQPDALDAFFSLYHEEPSHDSALSFLREILPSFCAMSLPSKESYDDQVPTNTPLHLAVIESDKGNLERTLAFANRNLLIKCSYENTALLLACKLADKESARLILAKMQELGCDVNQRDHHGMTALHWANFYHFDELIRELEIAGADPQLKAANGKTCEYFYQHQFTLKDLKLNGKEIIDGEFKLSDCALTDIAFHMDKIALNLKLTTPSEIAELYARDEIAQIRSSNRFYLFFKLFRPKLINWLEKQNDLEPQVTYRFSGQSSSA | not soluble
MLNRYYRFAVEKDDPSEAPESGDKPDSQPQKKS | not soluble
MLNVESHVLRYWEEELEIKIPRNEMGHRYYTEDNIESLRKVRDLKKQGYSLKAIKNMVNPKKATRENKESNERLTVRQPISLMEVREKKVGVENCYQEVPEAMSGSVQSVVQNMTQSNGQNAESAGLKLEQFQNLMNKVVSKALKESTTNLGKELSDNVSENVLKGMNYMMRVQDEKEEERYRKLDELMRNKQKLSRREKRKKAKAEKLLLKNKKKGMAHFGKKPQTT | not soluble
MLPAYIRIHDQIKKEIDEGLWKIGDRLPSERDLAERFEVSRMTLRQAITLLVEEGILERRVGSGTYIASSRVQEKMRGTTSFTEIVKSQGKTPSTKLISYRRVHPSEQEIKFLDIKPKSYIIRMERVRYADDIPVVFEVTAIPEKIIKSFKKEAITKHFFKTLTDHGFVIGKSQQTISASNANEMTADYLAISRGHAVLTLAQVSYFENGMPFEYVRSQYVGERFEFYLENK | not soluble
MLPEKRLLTPDDMKLWEESPTRAHFTKFIIDLAESVKGHENSQYKEPISESINSMMNLLSQIKDITQKHPVIKDADSSRFGKVEFRDFYDEVSRNSRKILRSEFPSLTDEQLEQLSIYLDESWGNKRRIDYGSGHELNFMCLLYGLYSYGIFNLSNDSTNLVLKVFIEYLKIMRILETKYWLEPAGSHGVWGLDDYHFLPFLFGAFQLTTHKHLKPISIHNNELVEMFAHRYLYFGCIAFINKVKSSASLRWHSPMLDDISGVKTWSKVAEGMIKMYKAEVLSKLPIMQHFYFSEFLPCPDGVSPPRGHIHDGTDKDDECNFEGHVHTTWGDCCGIKLPSAIAATEMNKKHHKPIPFD | soluble
MLPFLPEPSLSYTQQNRTAVLLLNLGTPDAPTAQAVRPYLKSFLTDRRIVELPKWLWYPILHGLVLTFRPKKSAHAYEKIWFKEGSPLEVYTARQAAALAERMPDLIVRHAMTYGNPSIADVLAELKSQGVGRLLAIPLYPQYAASSSGAAVDKVCEQLLLQRNQMSVRTISRFYDDAGYIDAMKNHILRYWAEHGRGKKLMLSFHGVPQKHYDLGDPYPDECRHTAKLLAEALELTEDEYTVSFQSQFGRAKWVTPSTQDLFGKLPKQGVTELDVFCPGFLADCLETMEEIALMGREQFYEAGGKNYRYIPCLNDNPDWIDALVALAEENLGGWR | not soluble
MLPGTFFEVLKNEGVVAIATQGEDGPHLVNTWNSYLKVLDGNRIVVPVGGMHKTEANVARDERVLMTLGSRKVAGRNGPGTGFLIRGSAAFRTDGPEFEAIARFKWARAALVITVVSAEQTK | soluble
MLPLPWWMLGVGPEEEADESSDYDMVDGHSIEVQESVPTTPVSVFHTPSQSSIIDISDQLVDLPTFLKVAKRRSSTVLETATPAKTPKIQLSERRRKFQRNDTEVMIKTGEPVVDCDETLGLNWLFDTDYPRDAGSGDLLNSTFRIDHRNHGEGTSQITESPKNRDFPLFFSSFDDTTVLFNTTIAGDIDVNERNQASGDWIFRKDKSPTNDPIENDQETDEKTKSELGDGGEIVFKEPVQSTKKTRGRKRGTSVRIEKLSTSRRTSAKKKEEKQKETETFDADKNENPSTPTAPPTMTRRHTPSRKAKTNRTFRL | not soluble
MLPPLPDFSLSVEQQFDLQKYRQQVRDISREDLEDLFIEVVRQKMAHENIFKGMIRQGS | soluble
MLPSSIEDYALIGDCETAALVGRDGSIDWLCWPSFDSEACFAALLGNEDNGRWQIAPADEVVRCSRRYRGDSLILETTFETATGSITLIDFMPPRGSASDVVRLVRGDRGRVKVAMQLVIRFGYGVALEHHHHHH | not soluble
MLPVITRFARPALMAIRPVNAMGVLRASSITKRLYHPKVIEHYTHPRNVGSLDKKLPNVGTGLVGAPACGDVMRLQIKVNDSTGVIEDVKFKTFGCGSAIASSSYMTELVQGMTLDDAAKIKNTEIAKELSLPPVKLHCSMLAEDAIKAAIKDYKSKRNTPTMLS | not soluble
MLQALLDSKDFLALTLANPQTLGDEFSFTLGEHTRVNVWDTGVIVFEPAQPQGKDVILSCGVHGNETAPIELCNTLIKQLLQQKIIAKQRTLFLIGNPLAINNGTRIIDENMNRLFSGEHSNPPGLVNPERLRAKKLETYVDRFFKAAAAGRQRIHYDLHTAMRASKHEKFAIYPYRPGRAYSAEQIMFLAASGVDTVLFHHEPTTTFSYFSSEQYGADAFTIELGKVYPMGQNDMTRFIAAQEMFTRLITDKPLQLESFSTDKVNLYQVCRVINKHFDDFEFTFATDVENFRAFPKGFVLAREGGQEIKVEQEVESIVFPNAKVPIGNRTVICLIPSVAPDVRLEHHHHHH | soluble
MLQFYRNLGKSGLRVSCLGLGTWVTFGGQITDEMAEHLMTLAYDNGINLFDTAEVYAAGKAEVVLGNIIKKKGWRRSSLVITTKIFWGGKAETERGLSRKHIIEGLKASLERLQLEYVDVVFANRPDPNTPMEETVRAMTHVINQGMAMYWGTSRWSSMEIMEAYSVARQFNLIPPICEQAEYHMFQREKVEVQLPELFHKIGVGAMTWSPLACGIVSGKYDSGIPPYSRASLKGYQWLKDKILSEEGRRQQAKLKELQAIAERLGCTLPQLAIAWCLRNEGVSSVLLGASNAEQLMENIGAIQVLPKLSSSIVHEIDSILGNKPYS | soluble
MLQKYSIIVLCCSAVLARVPVAKNCPTGWTWFLRSRGGWCMKVFTEALNQPSAEAKCKAAEAVLAGIQNKEEVAWMSKELTGTMWIGTKRTPPCMNSGVTKQCSQITSYYWTDGSTVGVQGFYWNSGEPNNQGGQGCAKLITSSSVLDDVACTTELTNGYVCGKIATF | not soluble
MLQNRLNKARSHAEKHDVDAIVFFNMSNVRYLSGFTGSDGAVVLGRDASWFLTDSRYTTQASRQVVGLPTVEYRIKLDGITELVREQGFRRIGFESEHTAFAVYESLRQKLPKTELVPIGEELAQLRLIKDPSECELLSRVARLASEALLSILPLVKPGAVERELALELEFAMRRAGAENASFDFIVASGERGSLPHGRASDKALAAGELVTIDFGARYEGYCSDETVTVAVGVPDERQCQIYGIVKEAHDRAIAAVRPGAELREIDRIARGYIEEQGYGAFFGHGLGHGVGLDVHEKPVVSPRGEGVAAVGMVFTIEPGIYIPGWGGVRIEDTVIVTEDGCRPITMIPKELMIL | not soluble
MLQTLSTHLSSTSTSTTTPLLLLSKPFLSPSAKSQLSHSKPFNFPRTLKPISYYKPPMANILSKLGFGTRSPDPSTMDPTIPQGPDDDLPAPGQQFAQFGAGCFWGVELAFQRVPGVTKTEVGYTQGLLHNPTYEDVCTGTTNHNEVVRVQYDPKECSFDTLIDVLWARHDPTTLNRQGNDVGTQYRSGIYYYTPEQEKAAKESLERQQKLLNRKIVTEILPAKKFYRAEEYHQQYLAKGGRFGFMQSAEKGCNDPIRCYG | soluble
MLRFVAILQFILLLLLIFSCNADEAKCTIKPYEAKGDKSPGSNGYVIEINGTTTKSMDISKGFVPGEIYKVSIRGWRTQYTVKTFRGFVVSSLFEDNTSAGSWQVVKGHGDARISPGCRQSGVSHANLKSKTSVHMMWKAPEVSSGCVVFRASVIETKYIWFTEAEGLTVKLCIQKGTQILKPVDDPSATCCACDIAQYDLEFTGIWSKNTHPKDYPTLEHLTHFTDMLGSSHSSNYSLWTIGGISTDGMKEIAEWGNTYKAEAEAKAKASEVRSLMKVKGLWFPDVQGTTKSQFVVNKYHHFVSLATMFGPSPDWCVGLSSVNLCLPDCTWAEERTFELQPFDAGTDSGPTYMSPNEPTEPREPIHWITTKLNPLSPFYNSKSDTIPTLAKVILRRKNVTSSECKSDDILKAEAHNITNTSEDEEYKDRRECMMTQWEPWSLCSATCGKGIRIRSRVYVFPIKAQVFHCHRQTTEKQFCNAKINECENSEAFSSKCQVSSWGSWGECSVQCGHGMRSRNRTFLNPATKSGDCSVDLERKDICVGENGDDCNVTPDPLCKTTAWSDWSPCSASCDEGVRVRTRLFFYSEHEKRCMHVNLQEKDTCVMQSCRRFIEINSEEICQEDKQAGQCAGNFPRYWYNHEKTQCERFIFTGCKGNRNQFETEEECKQICLPGYEKSKSLIPNNQLLEDFGNTEVDDGGERVDCEVSKWTAWGSCSVSCGRGKKSRSRHVVKLARNGGHQCSEHLMQELQCRLRPCPVKLTCQVGPWSRWSPCSVSCGEGSQTRRRRVVRARNDDWEEIECDDAETEVRQCTGRHQC | not soluble
MLRGIVVVDFSHYLPGPFASWRLAQLGAEVIKIEPPSGDRLRPFAEGRLFAAYNAGKKSIGLDLKTDAGREQARRLAARADVVIESFRPGVMARLGLGYDDMCRMNEQIIYCSISGFGQQSGRSLLGSHDLNYMALSGLLAQLADERGRPVHPKITLADFIGGMAAAERILAALFARERTGKGAHLDVSLVDGLAAMMAGHFAIEHGGGPKTGLSELSGEVVCYQLYETKDGRYMSLAALEPHFWRRFCEAVGHPEWTEAQWAPARSGEAVYDELAALFREKTLDEWSAFAEAVDVCLAPVLETGEAKALFADSRLRHLVRLQPGGVWTAAHGPDGQWGGGEPPKVNEHAHLVKGEE | not soluble
MLRIAVDCMGGDYAPLEIVRGCILAAKELGYKIYLVGDKEQIIPILEKAKEHNNSLLEVVHAPDKVEMHEPPSNVLKKKNSSLYVAGMLVRKGEADGLVSAGNTGAVLAVGKFIVGAEEEVERPSIGVALPNPKGKTVLIDVGANVDCKPKHLVQFAVIGHTYAEEILGIKNPRVGILSIGEEEGKGNELVKETYPLLKATKLNFKGNAEGRDIYAGTFDVIVCDGFVGNVILKASESLGLAVVQMIKEEIKRSILAKLGALLLMPALNRFKKKADFAEYGGIPLLGAKKPVIITHGRANAKAIKNAVRVAGEFLNTDFNKKLVYNLKTLIPEGVKV | soluble
MLRISELKLPLGHPPDAMEPAILARLGLSATDLVSFAVARRANDARKKSAIQMVYSVDVVLRDEAAVLRRFEGDHHLRVTPDTGYHFVAKAPEGFDGPRPVVIGAGPCGLFAGLILAQMGLKPIIVDRGKVVRERTKDTWGLWRRSELNPESNVQFGEGGAGTFSDGKLYSQIKDPRFLGRKVLTEFVKAGAPEEILTEAHPHIGTFRLVHMVENMRALIESLGGEYRWQHRVEDFDIEVGEDGVRRVTGLHIAGQGHLPARHVVMALGHSSRDTFQVLYDRGVHIEAKPFSIGVRIEHPQSWIDRARFGDCAGHKDLGAAAYAISHHAKNGRTVYSFCMCPGGTVVAATSEPGRVVTNGMSQYSRNERNANSGFVVDIDPERDYPGHPLAGVDFQRKWESLAFQAGGGTYQAPGQLVGDFLAGRPSTVFGAVTPSYKPGVHLTDLAQCLPDFAIEAMREALPIFGRQIPGYDHPDVVLTGVETRTSSPVRITRGKDFQSLNTAGLYPAGEGAGYAGGILSAAVDGIKVAEAVAKQYVAEGLISACLEHHHHHH | soluble
MLRLIPNKGLKKTINTLTVAEKARINHQDIEELLLRYQRSCPEDAARNITEVTNPNQEKHEGLRVFVIQTWMALMVANSYGLETYQTLKTFMDRQGYKTQPDSTYMATEQKD | not soluble
